Tests used:
Assay in all cases: holdup assay
Set-up in all cases: key: below the threshold = too weak to quantify, mostly under pKd 3.1 to 4
Settings in all cases: plain residues with an end cap or a label only (N-terminal biotin on a linker: ado-ado)
DLG3_1, Q92796 = biological target: T1, DLG3_1, Q92796
T1 sequence (Q92796 125-227, limits assumed, looked up): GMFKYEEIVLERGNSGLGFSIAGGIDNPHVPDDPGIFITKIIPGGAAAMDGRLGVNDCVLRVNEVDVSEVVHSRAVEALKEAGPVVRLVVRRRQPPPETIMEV

DLG4_2, P78352 = biological target: DLG4_2, P78352
DLG4_3, P78352 = biological target: DLG4_3, P78352
FRMPD2_1, Q68DX3 = biological target: FRMPD2_1, Q68DX3
FRMPD2_2, Q68DX3 = biological target: FRMPD2_2, Q68DX3
GOPC, Q9HD26 = biological target: GOPC, Q9HD26
GRIP2_4, Q9C0E4 = biological target: GRIP2_4, Q9C0E4
HTRA2, O43464 = biological target: HTRA2, O43464
HTRA3, P83110 = biological target: T2, HTRA3, P83110
T2 sequence (P83110 354-453, limits assumed, looked up): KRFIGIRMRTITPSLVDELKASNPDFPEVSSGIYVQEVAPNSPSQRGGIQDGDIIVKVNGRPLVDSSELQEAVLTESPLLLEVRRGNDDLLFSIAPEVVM

IL16_4, Q14005 = biological target: IL16_4, Q14005
Inadl_1, Q8NI35 = biological target: Inadl_1, Q8NI35
Inadl_6, Q8NI35 = biological target: Inadl_6, Q8NI35
Inadl_9, Q8NI35 = biological target: Inadl_9, Q8NI35
LAP2, Q96RT1 = biological target: LAP2, Q96RT1
LIN7B, Q9HAP6 = biological target: T3, LIN7B, Q9HAP6
T3 sequence (Q9HAP6 88-185, limits assumed, looked up): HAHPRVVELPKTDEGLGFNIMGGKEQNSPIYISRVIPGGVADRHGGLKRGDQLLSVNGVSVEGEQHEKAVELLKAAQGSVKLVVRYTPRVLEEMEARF

LNX1_1, Q8TBB1 = biological target: LNX1_1, Q8TBB1
MAGI2_3, Q86UL8 = biological target: MAGI2_3, Q86UL8
NHERF4_2, Q86UT5 = biological target: NHERF4_2, Q86UT5
PCLO, Q9Y6V0 = biological target: T4, PCLO, Q9Y6V0
T4 sequence (Q9Y6V0 4491-4600, limits assumed, looked up): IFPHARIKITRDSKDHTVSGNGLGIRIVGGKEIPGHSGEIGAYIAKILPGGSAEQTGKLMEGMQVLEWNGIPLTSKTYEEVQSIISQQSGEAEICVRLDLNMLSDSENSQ

PDLIM1, O00151 = biological target: PDLIM1, O00151
PDZD2_2, O15018 = biological target: T5, PDZD2_2, O15018
T5 sequence (O15018 329-429, limits assumed, looked up): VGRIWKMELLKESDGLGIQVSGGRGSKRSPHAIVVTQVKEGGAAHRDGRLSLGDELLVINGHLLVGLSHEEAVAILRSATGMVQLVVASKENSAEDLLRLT

RAPGEF6, Q8TEU7 = biological target: T6, RAPGEF6, Q8TEU7
T6 sequence (Q8TEU7 525-625, limits assumed, looked up): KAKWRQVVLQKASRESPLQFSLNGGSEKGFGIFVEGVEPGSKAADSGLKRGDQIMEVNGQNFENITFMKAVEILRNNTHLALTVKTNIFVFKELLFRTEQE

SCRIB_3, Q14160 = biological target: SCRIB_3, Q14160
SNTG1, Q9NSN8 = biological target: T7, SNTG1, Q9NSN8
T7 sequence (Q9NSN8 52-150, limits assumed, looked up): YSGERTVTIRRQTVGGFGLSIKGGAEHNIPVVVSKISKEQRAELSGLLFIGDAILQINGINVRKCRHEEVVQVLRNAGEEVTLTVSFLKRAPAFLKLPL

TIAM2, Q8IVF5 = biological target: T8, TIAM2, Q8IVF5
T8 sequence (Q8IVF5 885-986, limits assumed, looked up): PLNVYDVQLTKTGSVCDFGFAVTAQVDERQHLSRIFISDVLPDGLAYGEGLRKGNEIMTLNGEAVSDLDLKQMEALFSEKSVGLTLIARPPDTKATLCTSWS

TJP1_3, Q07157 = biological target: TJP1_3, Q07157
TJP2_1, Q9UDY2 = biological target: TJP2_1, Q9UDY2
TX1BP3, O14907 = biological target: T9, TX1BP3, O14907
T9 sequence (O14907 10-122, limits assumed, looked up): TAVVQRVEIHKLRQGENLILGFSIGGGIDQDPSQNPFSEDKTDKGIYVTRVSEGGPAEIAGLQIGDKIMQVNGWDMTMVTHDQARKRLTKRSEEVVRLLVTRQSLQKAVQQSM

Chain of FRMPD2_1, Q68DX3 (Q68DX3 770-861): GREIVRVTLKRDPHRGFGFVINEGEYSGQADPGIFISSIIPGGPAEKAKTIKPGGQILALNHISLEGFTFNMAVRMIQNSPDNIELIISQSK
Chain of LNX1_1, Q8TBB1 (Q8TBB1 261-371): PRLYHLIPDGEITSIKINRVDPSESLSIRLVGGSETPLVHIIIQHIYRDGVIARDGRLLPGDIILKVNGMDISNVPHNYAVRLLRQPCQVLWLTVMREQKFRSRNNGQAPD
Chain of FRMPD2_2, Q68DX3 (Q68DX3 944-1038): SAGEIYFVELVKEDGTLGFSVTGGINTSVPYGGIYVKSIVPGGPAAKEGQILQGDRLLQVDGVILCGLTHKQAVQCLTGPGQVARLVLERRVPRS
Chain of MAGI2_3, Q86UL8 (Q86UL8 600-682): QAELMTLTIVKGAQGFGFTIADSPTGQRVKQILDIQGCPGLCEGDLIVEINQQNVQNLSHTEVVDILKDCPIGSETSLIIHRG
Chain of TJP1_3, Q07157 (Q07157 416-512): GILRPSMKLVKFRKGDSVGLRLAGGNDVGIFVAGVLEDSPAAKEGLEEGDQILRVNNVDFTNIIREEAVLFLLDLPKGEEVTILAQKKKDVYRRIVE
Chain of PDLIM1, O00151 (O00151 1-87): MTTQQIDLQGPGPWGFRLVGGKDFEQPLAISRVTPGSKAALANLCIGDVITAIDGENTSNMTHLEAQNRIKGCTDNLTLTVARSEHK
Chain of IL16_4, Q14005 (Q14005 1229-1329): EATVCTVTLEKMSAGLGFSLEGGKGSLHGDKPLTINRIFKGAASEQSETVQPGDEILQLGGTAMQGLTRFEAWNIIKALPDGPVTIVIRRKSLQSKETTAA
Chain of NHERF4_2, Q86UT5 (Q86UT5 220-308): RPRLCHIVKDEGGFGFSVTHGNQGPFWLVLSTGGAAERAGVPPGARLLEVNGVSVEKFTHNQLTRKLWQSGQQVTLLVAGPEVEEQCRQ
Chain of Inadl_9, Q8NI35 (Q8NI35 1530-1615): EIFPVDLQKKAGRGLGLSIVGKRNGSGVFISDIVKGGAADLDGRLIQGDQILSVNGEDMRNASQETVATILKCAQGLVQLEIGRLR
Chain of TJP2_1, Q9UDY2 (Q9UDY2 24-128): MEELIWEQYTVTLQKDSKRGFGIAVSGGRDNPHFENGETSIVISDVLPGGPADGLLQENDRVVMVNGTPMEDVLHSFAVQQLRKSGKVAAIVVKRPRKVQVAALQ
Chain of GRIP2_4, Q9C0E4 (Q9C0E4 446-548): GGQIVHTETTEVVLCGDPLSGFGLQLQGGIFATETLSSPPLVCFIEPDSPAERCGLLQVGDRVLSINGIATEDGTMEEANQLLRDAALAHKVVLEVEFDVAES
Chain of Inadl_6, Q8NI35 (Q8NI35 1058-1167): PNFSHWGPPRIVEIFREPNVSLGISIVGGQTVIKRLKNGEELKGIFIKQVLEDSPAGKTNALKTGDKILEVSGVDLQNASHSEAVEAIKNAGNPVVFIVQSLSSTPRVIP
Chain of HTRA2, O43464 (O43464 355-458): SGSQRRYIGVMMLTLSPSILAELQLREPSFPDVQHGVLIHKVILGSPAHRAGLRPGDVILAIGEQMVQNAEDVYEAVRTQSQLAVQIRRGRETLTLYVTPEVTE
Chain of DLG4_3, P78352 (P78352 306-403): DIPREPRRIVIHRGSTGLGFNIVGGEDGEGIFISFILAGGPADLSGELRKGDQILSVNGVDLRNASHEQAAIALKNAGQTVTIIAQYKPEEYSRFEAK
Chain of DLG4_2, P78352 (P78352 155-259): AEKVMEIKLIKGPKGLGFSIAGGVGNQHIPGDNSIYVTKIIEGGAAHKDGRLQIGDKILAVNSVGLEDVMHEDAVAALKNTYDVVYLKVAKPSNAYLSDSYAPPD
Chain of Inadl_1, Q8NI35 (Q8NI35 113-229): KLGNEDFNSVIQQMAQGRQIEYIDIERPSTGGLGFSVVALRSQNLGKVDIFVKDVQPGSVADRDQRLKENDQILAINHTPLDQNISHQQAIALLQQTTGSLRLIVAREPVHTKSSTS
Chain of LAP2, Q96RT1 (Q96RT1 other isoform, or with tags, fused parts or gaps): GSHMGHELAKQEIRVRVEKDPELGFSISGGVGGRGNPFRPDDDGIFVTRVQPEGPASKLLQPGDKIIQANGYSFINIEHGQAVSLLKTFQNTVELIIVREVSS
Chain of SCRIB_3, Q14160 (Q14160 999-1103): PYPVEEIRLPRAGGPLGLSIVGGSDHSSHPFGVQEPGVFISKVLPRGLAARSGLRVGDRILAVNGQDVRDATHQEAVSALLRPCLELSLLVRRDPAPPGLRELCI

EDLEDEWEVI [TECPR2, O15040] was tested, and the pKd (DLG3_1, Q92796) was “below the threshold”, the pKd (DLG4_2, P78352) was “below the threshold” and the pKd (DLG4_3, P78352) was “below the threshold”. The pKd (FRMPD2_1, Q68DX3) was “below the threshold”, the pKd (FRMPD2_2, Q68DX3) was “below the threshold” and the pKd (GOPC, Q9HD26) was “below the threshold”. The pKd (GRIP2_4, Q9C0E4) was “below the threshold”, the pKd (HTRA2, O43464) was “below the threshold” and the pKd (HTRA3, P83110) was 4.12. The pKd (IL16_4, Q14005) was “below the threshold”, the pKd (Inadl_1, Q8NI35) was “below the threshold” and the pKd (Inadl_6, Q8NI35) was “below the threshold”. The pKd (Inadl_9, Q8NI35) was “below the threshold”, the pKd (LAP2, Q96RT1) was “below the threshold” and the pKd (LIN7B, Q9HAP6) was 3.74. For the same binder, the pKd (LNX1_1, Q8TBB1) was “below the threshold”, the pKd (MAGI2_3, Q86UL8) was “below the threshold” and the pKd (NHERF4_2, Q86UT5) was “below the threshold”. For the same binder, the pKd (PCLO, Q9Y6V0) was “below the threshold”, the pKd (PDLIM1, O00151) was “below the threshold” and the pKd (PDZD2_2, O15018) was 3.84. For the same binder, the pKd (RAPGEF6, Q8TEU7) was “below the threshold”, the pKd (SCRIB_3, Q14160) was 3.84 and the pKd (SNTG1, Q9NSN8) was “below the threshold”. The pKd (TIAM2, Q8IVF5) was 3.98, the pKd (TJP1_3, Q07157) was “below the threshold” and the pKd (TJP2_1, Q9UDY2) was “below the threshold”. For the same binder, the pKd (TX1BP3, O14907) was “below the threshold”.
